Conditions in all cases: 20 mM Tris pH 7.5, 1 mM CaCl2, 1 mM DTT, 10 ug/ml poly(dI-dC), 100 ug/ml BSA, 37 C, 10 min; probe 0.05 uM (0.1 uM restricted)
Data set [1] relates to T1, CovR D53E D52E (Streptococcus salivarius HSISS4), ORF:ee641105.
T1 sequence: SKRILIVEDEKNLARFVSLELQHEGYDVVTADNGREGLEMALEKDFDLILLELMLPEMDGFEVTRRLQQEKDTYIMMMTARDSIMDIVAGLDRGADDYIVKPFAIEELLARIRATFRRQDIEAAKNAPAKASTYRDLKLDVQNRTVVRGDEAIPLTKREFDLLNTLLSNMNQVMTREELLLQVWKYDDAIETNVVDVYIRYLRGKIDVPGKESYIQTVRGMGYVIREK
Put plainly: competition.

Data set [2] deals with T2, CovR WT (Strep-tagged) (Streptococcus salivarius HSISS4), ORF:ee641105.
T2 sequence: T1 sequence with E52D
Put plainly: EMSA. (In general: In EMSA bound probe runs differently from free probe, usually more slowly.)

Data set [3] concerns T1, CovR D53E D52E (Streptococcus salivarius HSISS4), ORF:ee641105. The experiment in a line: EMSA.
Data set [4] deals with T3, CovR D53A D52A (Streptococcus salivarius HSISS4), ORF:ee641105.
T3 sequence: T1 sequence with E52A
Put plainly: EMSA.

Positions count from the first letter of the chain named.

Regarding “AAAAATAATGAGCACTTAAAAGAATGGGATAAGGACAATATCAAAAATGTTGTTCTATCTCATTCTTTTTGTTTGAAACAGTTAATATGGTAGAGGCGTTTTTACTAGTAGCGTATGCTATAATAGAAAGATAGAAAGGAGGCCTTCATG (double strand) [PdnaE unlabeled competitor]”, the binding entry in data set [1] is listed as “no binding”. The same measure, in the same setting: the entry for “CCTGTAGTTCCCTTACATACAGTGCGTTACTTTGAGAATGCAGACCGCTCGACGATTCAGATGTTGCATGCCATCTCGCAAAACGTTTCCTTGTCAGAGGCCTCTATTTGTCCTATGAATCAGCTTCTTTTCTCGCCTCAAGAAATGGAA (double strand) [CDSdnaE unlabeled competitor]” is “no binding”. On to “TTGATACAAAGGAAGGTCTTTCCTATATAAAATGTATAAAAATAGCTTATTTTCACTATTGTTCTGTTAAAAATGCATTAACTGTATATTAATTATATTATAATTATGATATAATGTTTTTAAAATTTCGAAATAAAGGAGTGTCTCTTG (double strand) [PcomR HSISS4 (150 bp)]”, for which the binding entry in data set [2] was “binds”; in data set [3] it was “binds”; in data set [4], “binds more weakly”. As to “CAAGAGACACTCCTTTATTTCGAAATTTTAAAAACATTATATCATAATTATAATATAATTAATATACAGTTAATGCATTTTTAACAGAACAATAGTGAAAATAAGCTATTTTTATACATTTTATATAGGAAAGACCTTCCTTTGTATCAA (double strand) [PcomR unlabeled competitor]”, the binding result in data set [1] is “binds”.

Values taken from publication PMC8725580.
